Source: patent US20230406925A1 (PHYLAXIS BIOSCIENCE, published 2023)

Legend:
[1] = target: T1, human Siglec-8 (full-length, on cells) (human, UniProt Q9NYZ4 17-499); assay: flow cytometry on human eosinophils (CD16- CCR3+) from whole blood, anti-human AF647 secondary, MFI
T1 construct: Used for full-length human Siglec-8 transiently expressed on CHO or 293 cells and for native Siglec-8 on primary human eosinophils
From the text: To determine if increasing the valency of Siglec-8 antibodies could enhance agonist activity, the parental llama B12, D1 and E2 VHH sequences were used to generate tetravalent (Tet-B12 (cx8467; SEQ ID NO:50 linked to an Fc), Tet-D1 (cx8469; SEQ ID NO:56 linked to an Fc), and Tet-E2 (cx8463; SEQ ID NO:62 linked to an Fc)) and hexavalent (Hex-B12 (cx8466; SEQ ID NO:51 linked to an Fc), Hex-D1 (cx8523; SEQ ID NO:57 linked to an Fc), and Hex-E2 (cx8522; SEQ ID NO:165 linked to an Fc)), Siglec8-VHH-Fc antibodies linked to a reduced effector function xELL human Fc region via linker 2. The bivalent (Bi-B12 (cx8982), Bi-D1 (cx8983) and Bi-E2 (cx8984)), tetravalent, and hexavalent Siglec8-VHH-Fc antibodies were assessed by flow cytometry for binding to eosinophils (CD16⁻ CCR3⁺). […] Cells were spun down and then resuspended in titrated test articles starting at 200 nM 1:4 and incubated for 30 minutes at 4° C. before being washed twice and resuspended in secondary mixture (2*; anti-CCR3 FITC, anti-human AF647, PI, anti-CD16 BV605) and incubated for 30 minutes at 4° C., washed twice, and bound antibodies were detected via flow cytometry (Novocyte). […]

[2] = target: T1, human Siglec-8 (full-length, on cells); assay: flow cytometry, CHO cells transfected with human Siglec-8, anti-human Fc-gamma secondary, Median RL1-H
Experimental: In additional studies, the parental llama G2 sequence was humanized and multivalent hzSiglec8-G2v14-Fc antibodies were cloned with a reduced effector function xELL human Fc. Binding of bivalent (cx11422; SEQ ID NO: 5 linked to an Fc xELL via linker 2), tetravalent (cx11580; SEQ ID NO: 9 linked to an Fc xELL via linker 2), and hexavalent (cx11579; SEQ ID NO: 10 linked to an Fc xELL via linker 2) hzSiglec8-G2v14-Fc antibodies were assessed by flow cytometry using CHO cells transfected with human Siglec-8. A titration series of the fusion proteins were incubated with the Siglec8-expressing CHO cells (5×10⁴ cells/well) for 30 minutes at 4° C. in FACS Buffer (PBS 1% BSA, 0.1% NaN3 pH 7.4) in 96 well plates. Following one 150 μL wash with FACS buffer, an APC-conjugated anti-human Fcγ specific secondary antibody (Jackson ImmunoResearch) was added, and cells were incubated for 30 minutes at 4° C. Following one additional wash in FACS buffer, bound antibodies were detected via flow cytometry (iQue Intellicyte).
The calculated affinity was similar between the bivalent, tetravalent, and hexavalent hzSiglec8-G2v14-Fc antibodies. The observed Bmax was reduced with increasing valency as anticipated, due the fact that the Fc portion of the antibody was detected in this assay and the ratio of Fc regions to anti-Siglec-8 binding domains is inverse to valency.

[3] = target: T1, human Siglec-8 (full-length, on cells); assay: flow cytometry, CHO cells transiently transfected with full-length human Siglec-8, A647 anti-human Fc-gamma secondary, Mean RL1-H
Experimental: Binding of the anti-human Siglec-8 VHHs, B12, D1, E2, and G2, as a bivalent VHH-hIgG1-xELL-Fc (VHH of SEQ ID NO: 49, 55, 61, and 1, respectively linked to an Fc xELL via linker 2, these constructs are also designated cx8982, cx8983, cx8984, and cx10382, respectively) was determined by flow cytometry using CHO cells that had been transiently transfected with full-length human Siglec-8. Binding specificity was assessed using untransfected (UT) CHO cells as a control. For the binding assays, 50,000 Siglec-8 CHOs or UT CHOs were seeded in a 96-well plate and a titration of anti-Siglec8-VHH-xELL was added in FACS Buffer (PBS 1% BSA, 0.1% NaN3 pH 7.4) incubating for 30 minutes at 4° C. After washing, the plates were incubated with an A647-conjugated anti-human Fcγ specific secondary antibody (Jackson ImmunoResearch) diluted 1:2000 in FACS buffer for 30 minutes at 4° C. The plates were washed, and binding was determined by flow cytometry quantitating anti-human A647 mean fluorescent intensity using an Intellicyt iQue Plus.

T1 sequence (Q9NYZ4 17-499): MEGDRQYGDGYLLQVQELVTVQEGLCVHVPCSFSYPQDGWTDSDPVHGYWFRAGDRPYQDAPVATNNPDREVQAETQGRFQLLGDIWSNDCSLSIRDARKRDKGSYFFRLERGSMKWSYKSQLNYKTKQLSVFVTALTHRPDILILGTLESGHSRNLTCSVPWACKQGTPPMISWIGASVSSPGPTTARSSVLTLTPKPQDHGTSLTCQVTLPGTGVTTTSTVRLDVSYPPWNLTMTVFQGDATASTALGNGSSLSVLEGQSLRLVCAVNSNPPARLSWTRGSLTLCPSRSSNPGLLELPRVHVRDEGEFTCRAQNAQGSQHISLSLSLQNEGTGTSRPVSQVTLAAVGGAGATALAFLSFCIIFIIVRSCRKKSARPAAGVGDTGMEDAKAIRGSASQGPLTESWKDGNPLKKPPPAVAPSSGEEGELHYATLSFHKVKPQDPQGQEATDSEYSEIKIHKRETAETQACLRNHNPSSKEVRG

B1: anti-Siglec8-D1-xELL, bivalent VHH-hIgG1-xELL-Fc (cx8983) (Fc fusion)
chain: QVQLVESGGGLVQPGGSLRLSCAASGSIASIHGMGWYRQAPGKERELVAAIAGEGSTYYADSVKGRFTISRDFAKNTLYLQMNNLKAEDTAMYYCANNDERDDYWGQGTQVTVKPGGGGDKTHTCPPCPAPGGPSVFLFPPKPKDTLMISRTPEVTCVVVDVSHEDPEVKFNWYVDGVEVHNAKTKPREEQYNSTYRVVSVLTVLHQDWLNGKEYKCKVSNKALPAPIEKTISKAKGQPREPQVYTLPPSRDELTKNQVSLTCLVKGFYPSDIAVEWESNGQPENNYKTTPPVLDSDGSFFLYSKLTVDKSRWQQGNVFSCSVMHEALHNHYTQKSLSLSPGK
notes: also called Bi-D1
EC50 (read off the curve) [1]: ~50 pM

B2: tetravalent hzSiglec8-G2v14-Fc antibody, Fc xELL (cx11580) (Fc fusion)
chain: EVQLLESGGGEVQPGGSLRLSCAASGSISIFSMYVVAWYRQAPGKEREWVAFIQRGGTANYAESAKGRFTISRDNAKNTVYLQMSSLRAEDTAVYYCNYINTDNEIGGPWGQGTLVTVKPGGSGGSEVQLLESGGGEVQPGGSLRLSCAASGSISIFSMYVVAWYRQAPGKEREWVAFIQRGGTANYAESAKGRFTISRDNAKNTVYLQMSSLRAEDTAVYYCNYINTDNEIGGPWGQGTLVTVKPGGGGDKTHTCPPCPAPGGPSVFLFPPKPKDTLMISRTPEVTCVVVDVSHEDPEVKFNWYVDGVEVHNAKTKPREEQYNSTYRVVSVLTVLHQDWLNGKEYKCKVSNKALPAPIEKTISKAKGQPREPQVYTLPPSRDELTKNQVSLTCLVKGFYPSDIAVEWESNGQPENNYKTTPPVLDSDGSFFLYSKLTVDKSRWQQGNVFSCSVMHEALHNHYTQKSLSLSPGK
EC50 (read off the curve) [2]: ~30 pM

B3: anti-Siglec8-E2-xELL, bivalent VHH-hIgG1-xELL-Fc (cx8984) (Fc fusion)
chain: QVQLVESGGGLVQPGGSLRLSCATSGIIFTSNVINWYRQAPGKQREFVAFITSITSGQSTMYADAVKGRFTVSRDNDKNIGYLQMTSLQPEDTARYVCNVGAYWGQGTQVTVKPGGGGDKTHTCPPCPAPGGPSVFLFPPKPKDTLMISRTPEVTCVVVDVSHEDPEVKFNWYVDGVEVHNAKTKPREEQYNSTYRVVSVLTVLHQDWLNGKEYKCKVSNKALPAPIEKTISKAKGQPREPQVYTLPPSRDELTKNQVSLTCLVKGFYPSDIAVEWESNGQPENNYKTTPPVLDSDGSFFLYSKLTVDKSRWQQGNVFSCSVMHEALHNHYTQKSLSLSPGK
notes: also called Bi-E2
EC50 (read off the curve) [3]: ~300 pM
